What was measured:
Type in all cases: cell-based, mouse
MEF5/N9 cells [1] = test: Visible phenotypic changes / viability of stably transfected MEF5/N9 clones on 4-OH-tamoxifen treatment; details: 10^−8 M 4-OH-tamoxifen, 24 h
Outline: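 Hygromycin-selected MEF5/N9 clones stably expressing ER(T2) fusion proteins were plated at 1·10^5 cells/well and next day given 10^−8 M 4-hydroxy-tamoxifen. Cell death was judged from phase-contrast micrographs at 10- or 20-fold magnification taken 24 h after induction.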

MEF5/N9 cells [2] = test: MTT cytotoxicity assay of stably transfected MEF5/N9 clones; details: 10^−8 M 4-OH-tamoxifen, 48 h
Outline: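 Hygromycin-selected MEF5/N9 clones stably carrying ER(T2) fusion constructs, 4·10^3 cells/well, treated 48 h with or without 10^−8 M 4-OH-tamoxifen, in triplicate. Survival measured by MTT (0.5 mg/ml, 4 h, 37° C), formazan dissolved in HCl/isopropanol, absorbance at 570 nm.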

MEF5/N9 cells [3] = test: Transient cotransfection of ER(T2) fusion expression vectors with β-galactosidase reporter; β-galactosidase activity in lysates; details: 10^−8 M 4-OH-tamoxifen, 48 h; relative to Cre-ER(T2) without 4-OH-tamoxifen
Outline: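 MEF5/N9 mouse embryonic fibroblasts transiently cotransfected with pCMV-β-gal reporter (100 ng) plus ER(T2) fusion vector (100 ng; 50 ng for Casp9 constructs), then induced with 10^−8 M 4-OH-tamoxifen for 48 h. Lysate β-galactosidase read by chemiluminescence (RLU), mean of two wells, expressed relative to uninduced pCAG-Cre-ER(T2) control set at 1.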

MEF5/N9 cells [4] = test: as above; details: no 4-OH-tamoxifen; transient transfection 50 or 100 ng vector; relative to Cre-ER(T2) without 4-OH-tamoxifen

B1: Casp9full-ER(T2): full length murine Caspase-9 fused to ER(T2) ligand binding domain, SEQ ID NO: 29 (protein)
chain: MDEADRQLLRRCRVRLVSELQVAELWDALLSRELFTRDMIEDIQQAGSGSRRDQARQLVTDLETRGRQALPLFISCLEDTGQGTLASLLQSGRQAAKQDPEAVKPLDHLVPVVLGPMGLTAKEQRVVKLDPSQPAVGNLTPVVLGPEELWPARLKPEVLRPETPRPVDIGSGGAHDVCVPGKIRGHADMAYTLDSDPCGHCLIINNVNFCPSSGLGTRTGSNLDRDKLEHRFRWLRFMVEVKNDLTAKKMVTALMEMAHRNHRALDCFVVVILSHGCQASHLQFPGAVYGTDGCSVSIEKIVNIFNGSGCPSLGGKPKLFFIQACGGEQKDHGFEVACTSSQGRTLDSDSEPDAVPYQEGPRPLDQLDAVSSLPTPSDILVSYSTFPGFVSWRDKKSGSWYIETLDGILEQWARSEDLQSLLLRVANAVSAKGTYKQIPGCFNFLRKKLFFKTSVEPSAGDMRAANLWPSPLMIKRSKKNSLALSLTADQMVSALLDAEPPILYSEYDPTRPFSEASMMGLLTNLADRELVHMINWAKRVPGFVDLTLHDQVHLLECAWLEILMIGLVWRSMEHPVKLLFAPNLLLDRNQGKCVEGMVEIFDMLLATSSRFRMMNLQGEEFVCLKSIILLNSGVYTFLSSTLKSLEEKDHIHRVLDKITDTLIHLMAKAGLTLQQQHQRLAQLLLILSHIRHMSNKGMEHLYSMKCKNVVPLYDLLLEAADAHRLHAPTSRGGASVEETDQSHLATAGSTSSHSLQKYYITGEAEGFPATA
modifications: fusion protein Casp9full-ER(T2)
4-OH-tamoxifen-dependent cell death, phenotype of stable clones (MEF5/N9 cells [1]): died in the presence of 4-OH-tamoxifen within 24 h
4-OH-tamoxifen-dependent cell death, phenotype of stable clones (MEF5/N9 cells [1]; listed as Casp9fullER): substantial cell death
cell viability in the presence of 4-OH-tamoxifen (MTT) (MEF5/N9 cells [2]): 6%
relative β-galactosidase activity in presence of 4-OH-tamoxifen compared to the negative control (MEF5/N9 cells [3]): 7%
basal toxicity: relative β-galactosidase activity compared to the negative control in absence of 4-OH-tamoxifen (MEF5/N9 cells [4]): 62%

Source: patent US8530168B2, “Fusion protein comprising a Caspase domain and a nuclear hormone receptor binding domain and methods and uses thereof” (Helmholtz Zentrum Munich Deutsches Forschungszentrum fuer …, priority 2007, dated 2013)
